Data published in patent publication US20090264354A1 (UNIVERSITY OF UTAH RESEARCH FOUNDATION, published 2009).

Molecular target: the molecule itself
Assay: anti-Myc immunoprecipitation from co-transfected NIH3T3 lysates, non-reducing Western blot; 58-kD disulfide-bonded homodimer
Excerpt: This example describes the analysis of the protein structure of Penumbra protein. NIH3T3 fibroblasts were co-transfected with pcDNA3.1/Pen-Myc and pEGFP NI/Pen. The latter expressed murine Penumbra (SEQ ID NO:3) as a fusion protein with enhanced green fluorescent protein (EGFP) in its C-terminus. The Pen-Myc fusion protein was first immunoprecipitated from cell lysates using the anti-Myc MAb, Western blotted and sequentially probed with anti-Myc and anti-EGFP antibodies. It appeared that both Pen-Myc/Pen-Myc and Pen-Myc/Pen-EGFP dimers were apparent in the immunoprecipitates under non-reducing conditions and they appeared to dissociate into monomers after reduction indicating they appear to form disulfide-bonded homodimers. It appeared that under reducing conditions, all Pen-Myc fusion proteins existed as 29-kD monomers. In contrast, under non-reducing conditions, it appeared that about half of Pen-Myc protein existed as 58-kD homodimers, while the remaining Pen-Myc protein appeared to exist either as 29-kDa monomers or 89-kDa dimers with Pen-EGFP. […] The same blot was then stripped and reprobed with anti-EGFP antibodies to reveal an apparent ˜60-kD Pen-EGFP monomer and the 89-kD Pen-Myc/Pen-EGFP dimer.

B1: Penumbra-Myc fusion protein (murine Penumbra with C-terminal 11-aa Myc and 6-aa His tags, expressed from pcDNA3.1/Pen-Myc) (other)
chain: MARRPGVPAAYGDEFSFVSPLVKYLLFFFNMLFWVISMVMVAVGVYARLMKHAEAALACLAVDPAILLIVVGVLMFLLTFCGCIGSLRENICLLQTFSLCLTIVFLLQLAAGILGFVFSDKARGKVSEIINNAIVHYRDDLDLQNLIDFGQKKFSCCGGISYRDWSQNMYFNCSEDNPSRERCSVPYSCCLPTPRQAVINTMCGQGMQANDYLEASKVIYTNGCIDKLVNWIHSNLFLLGGVALGLAIPQLVGILLSQVLVNQIKDQIKLQLYNQQHRADPWY
notes: Seen as a 29-kD monomer on reducing gels; also called Pen-Myc fusion protein; Pen-Myc protein; not shown: 11-aa Myc tag from the pcDNA3.1 vector; 6-aa His tag from the pcDNA3.1 vector
binding result: binds
